Source: EP4545563A1 (Foreseen Technology (Beijing) Co., Ltd., dated 2024)

T1: ITGA2 protein on the surface of human tumor cells (HuCCT1, A431) (human, UniProt P17301 30-1181)
T1 construct: whole, on cells; Endogenously expressed on the cell lines; the cell line of each entry is named under assay or readout; also called Integrin alpha-2; ITGA2-positive HuCCT1 cells
T1 sequence (looked up): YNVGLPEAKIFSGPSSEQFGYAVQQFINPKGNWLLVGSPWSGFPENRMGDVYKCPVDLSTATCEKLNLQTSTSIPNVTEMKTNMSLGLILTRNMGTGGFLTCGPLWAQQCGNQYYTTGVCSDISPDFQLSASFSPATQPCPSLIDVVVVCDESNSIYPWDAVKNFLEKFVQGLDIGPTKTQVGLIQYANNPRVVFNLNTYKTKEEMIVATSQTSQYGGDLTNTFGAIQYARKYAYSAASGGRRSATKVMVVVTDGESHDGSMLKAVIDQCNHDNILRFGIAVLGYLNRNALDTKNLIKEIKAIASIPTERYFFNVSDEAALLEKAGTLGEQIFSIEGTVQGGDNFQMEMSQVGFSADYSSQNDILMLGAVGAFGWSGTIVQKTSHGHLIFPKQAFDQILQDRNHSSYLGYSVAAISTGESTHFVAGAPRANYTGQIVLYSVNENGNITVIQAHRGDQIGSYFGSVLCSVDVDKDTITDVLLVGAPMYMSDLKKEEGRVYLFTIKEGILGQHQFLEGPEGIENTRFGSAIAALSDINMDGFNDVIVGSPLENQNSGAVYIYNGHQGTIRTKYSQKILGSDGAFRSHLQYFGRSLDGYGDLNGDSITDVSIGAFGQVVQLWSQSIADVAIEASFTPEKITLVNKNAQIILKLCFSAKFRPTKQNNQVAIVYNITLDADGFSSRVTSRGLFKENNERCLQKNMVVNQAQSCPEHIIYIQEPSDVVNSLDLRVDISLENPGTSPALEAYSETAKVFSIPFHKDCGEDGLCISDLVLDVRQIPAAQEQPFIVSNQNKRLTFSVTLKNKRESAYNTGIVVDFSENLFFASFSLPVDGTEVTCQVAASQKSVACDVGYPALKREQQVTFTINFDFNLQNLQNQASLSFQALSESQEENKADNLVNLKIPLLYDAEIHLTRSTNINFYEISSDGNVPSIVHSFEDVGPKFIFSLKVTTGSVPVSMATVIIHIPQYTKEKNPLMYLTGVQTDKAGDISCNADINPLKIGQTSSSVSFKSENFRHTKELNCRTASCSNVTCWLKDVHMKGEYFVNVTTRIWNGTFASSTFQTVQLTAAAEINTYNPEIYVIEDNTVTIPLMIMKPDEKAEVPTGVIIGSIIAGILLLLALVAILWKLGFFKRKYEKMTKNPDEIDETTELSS

T2: ITGA2-His (human, UniProt P17301 30-1132, limits assumed)
T2 construct: also called ITGA2 protein; not shown: His tag
T2 sequence (looked up): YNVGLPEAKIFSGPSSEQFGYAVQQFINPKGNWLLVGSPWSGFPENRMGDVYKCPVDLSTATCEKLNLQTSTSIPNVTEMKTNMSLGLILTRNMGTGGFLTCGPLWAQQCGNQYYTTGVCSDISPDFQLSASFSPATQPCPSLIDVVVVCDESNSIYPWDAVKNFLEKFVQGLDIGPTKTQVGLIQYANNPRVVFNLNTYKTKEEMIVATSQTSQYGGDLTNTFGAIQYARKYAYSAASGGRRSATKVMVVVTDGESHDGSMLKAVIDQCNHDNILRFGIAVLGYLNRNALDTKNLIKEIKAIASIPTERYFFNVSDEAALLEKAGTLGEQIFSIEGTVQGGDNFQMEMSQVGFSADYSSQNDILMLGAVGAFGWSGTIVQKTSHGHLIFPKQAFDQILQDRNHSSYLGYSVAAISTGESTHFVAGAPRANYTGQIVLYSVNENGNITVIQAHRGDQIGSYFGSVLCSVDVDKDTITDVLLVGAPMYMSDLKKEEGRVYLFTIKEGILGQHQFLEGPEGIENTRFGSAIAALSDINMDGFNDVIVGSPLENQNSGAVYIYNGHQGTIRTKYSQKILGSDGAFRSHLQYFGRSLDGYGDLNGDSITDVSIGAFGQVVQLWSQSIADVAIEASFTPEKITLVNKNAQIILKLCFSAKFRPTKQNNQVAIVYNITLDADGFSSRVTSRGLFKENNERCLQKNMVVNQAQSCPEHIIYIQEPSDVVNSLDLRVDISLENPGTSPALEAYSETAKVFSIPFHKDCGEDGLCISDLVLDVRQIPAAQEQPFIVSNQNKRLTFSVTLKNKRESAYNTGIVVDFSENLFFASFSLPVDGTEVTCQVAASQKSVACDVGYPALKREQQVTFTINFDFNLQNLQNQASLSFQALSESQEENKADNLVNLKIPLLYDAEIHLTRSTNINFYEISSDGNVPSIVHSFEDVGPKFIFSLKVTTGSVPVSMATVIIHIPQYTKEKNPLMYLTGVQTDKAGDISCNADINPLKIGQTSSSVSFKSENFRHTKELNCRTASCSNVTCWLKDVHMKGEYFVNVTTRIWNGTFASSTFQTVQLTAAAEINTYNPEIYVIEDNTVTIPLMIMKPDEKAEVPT


Columns and labels:
[1] = target: T1, ITGA2 protein on the surface of human …; assay: flow cytometry on HuCCT1 cells, goat anti-human IgG (H+L) secondary antibody
[2] = target: T2, ITGA2-His; assay: ELISA, plate coated with 2 ug/mL ITGA2-His, anti-human IgG-Fc-HRP detection

| EC50 [1] | EC50 [2] | Binder |
| --- | --- | --- |
| 1.13 nM | 0.021 nM | Humanized antibody FS002-A10 (antibody, human IgG1, kappa, V domains shown, IgG1 heavy chain, kappa light chain) VH: QVQLQQSGPGLVKPSQTLSLTCAISGDSVSSDSAAWNWIRQSPSRGLEWLGRTYYRSKWYNDYAVSVKSRITINPDTSKNQFSLQLNSVTSDDTAVYYCARGSWAAPWLWGQGTLVTVSS VL: NIQLTQSPPFLSASVGDRVTITCRASQDISSFLAWYQQKPGKAPNLLIHAATTLQSGVPSRFSGSGSGTEFTLTISSLRPEDFATYYCQQLHTYPITFGQGTRLEIKR |
| 68.4 nM | 0.156 nM | Humanized antibody FS002-C417 (antibody, human IgG1, kappa, V domains shown, IgG1 heavy chain, kappa light chain) VH: EVQLVESGGVVVQPGGSLRLSCAASGFTFDDYTMHWVRQAPGKGLEWVSLISWDGGSTYYADSVKGRFTISRDNAKNTLYLQMNSLRAEDTAVYYCARDTGYAMDVWGQGTMVTVSS VL: NIQMTQSPSSLSASVGDRVTITCRASQSISSYLNWYQQKPGKAPKLLIYAASSLQSGVPSRFSGSGSGTDFTLTISSLQPEDFASYYCQQSYSSWAFGQGTKVEIKR |
| 0.653 nM | 0.029 nM | Humanized antibody FS002-A1 (antibody, V domains shown, IgG1 heavy chain, kappa light chain; expressed in ExpiCHO-s cells, Protein A purified) VH: QVQLVQSGAEVKKPGASVKVSCKASGYTFTSYYMHWVRQAPGQGLEWMGIINPSGGSTSYAQKFQGRVTMTRDTSTSTVYMELSSLRSEDTAVYYCARDISGSYQTDAFDIWGQGTMVTVSS VL: not shown |
| 2.41 nM | 0.116 nM | Humanized antibody FS002-C241 (antibody, human IgG1, lambda, V domains shown, IgG1 heavy chain, lambda light chain) VH: RLQLQESGPGLVKPSETLSLTCTVSGGSISSSSYYWGWIRQPPGKGLEWIGSIYYSGSTYYNPSLKSRVTISVDTSKNQFSLKLSSVTAADTAVYYCARRYSYGRDAFDIWGQGTMVTVSS VL: QSALTQPASVSGSPGQSITISCSGTSSDIGRYNYVSWYQQHPGKAPKLLIFDVSNRPSGVSNRFSGSKSGNTASLTISGLQAEDEADYYCSSYTSTVPYVFGTGTRVAVQG |
| 2.17 nM | 0.073 nM | Humanized antibody FS002-C375 (antibody, human IgG1, kappa, V domains shown, IgG1 heavy chain, kappa light chain) VH: QVQLQESGPGLVKPSQTLSLTCTVSGGSISSGGYYWSWIRQHPGKGLEWIGYIYYSGSTYYNPSLKSRVTISVDTSKNQFSLKLSSVTAADTAVYYCARVGVALHYGMDVWGQGTTVTVSS VL: EIVLTQSPATLSLSPGERATLSCRASQSVSSYLAWYQQKPGQAPRLLIYDASNRATGIPARFSGSGSGTDFTLTISSLEPEDFAVYYCQQRSNWPLTFGGGTKVEIKR |
| 0.793 nM | 0.022 nM | Humanized antibody FS002-A36 (antibody, human IgG1, kappa, V domains shown, IgG1 heavy chain, kappa light chain) VH: QVQLQESGPGLVKPSQTLSLTCTVSGGSISSGGYYWSWIRQHPGKGLEWIGYIYYSGSTYYNPSLKSRVTISVDTSKNQFSLKLSSVTAADTAVYYCARVRLLGGGFDIWGQGTTVTVSS VL: EIVLTQSPATLSLSPGERATLSCRASQSVSTYLAWYQQKPGQAPRLLIYDTSIRATGIPARFSGSGSGTDFTLTISSLEPEDFAVYYCQQRSNWPLTFGGGTKVEIKR |
| 9.48 nM | 0.279 nM | Humanized antibody FS002-C58 (antibody, human IgG1, kappa, V domains shown, IgG1 heavy chain, kappa light chain) VH: EVQLLESGGGVVQPGRSLRLSCAASGFTFSSYAMHWVRQAPGKGLEWVAVISYDGSNKYYADSVKGRFTISRDNSKNTLYLQMNSLRAEDTAVYYCARGKYNWFDPWGQGTLVTVSS VL: EIVLTQSPATLSLSPGERATLSCRASQSVYSSLAWYQQKPGQAPKLLIYDASNRATGVPARFSGSGSGTDFTLTISSLEPEDFALYYCQHRQHWPLTFGGGTKVEIKR |
| 0.987 nM | 0.073 nM | Humanized antibody FS002-C216 (antibody, human IgG1, kappa, V domains shown, IgG1 heavy chain, kappa light chain) VH: not shown VL: EIVLTQSPATLSLSPGERATLSCRASQSVSSYLAWYQQKPGQAPRLLIYDASNRATGIPARFSGSGSGTDFTLTISSLEPEDFAVYYCQQRTNWLMYTFGQGTKLEIKR |
| 2.13 nM | 0.044 nM | Humanized antibody FS002-C15 (antibody, human IgG1, kappa, V domains shown, IgG1 heavy chain, kappa light chain) VH: QLQLQESGPGLVKPSETLSLTCTVSGGSISSSSYYWGWIRQPPGKGLEWIGSIYYSGSTYYNPSLKSRVTISVDTSKNQFSLKLSSVTAADTAVYYCARLTIFGVVLYWGQGTLVTVSS VL: EIVLTQSPATLSLSPGERATLSCQASQTFSDYLAWYQQKPGQAPRLLIYDASTRATGIPARFSGSGSGTDFTLTISSLEPEDFAVYYCQQRSHWPPGYTFGQGTRVEIKR |
| 0.927 nM | 0.028 nM | Humanized antibody FS002-A15 (antibody, human IgG1, kappa, V domains shown, IgG1 heavy chain, kappa light chain) VH: RLQLQESGPGLVKPSQTLSLTCTVSGGSISSGGYYWSWIRQHPGKGLEWIGYIYYSGSTYYNPSLKSRVTISVDTSKNQFSLKLSSVTAADTAVYYCARATIYGYFDYWGQGTLVTVSS VL: EIVLTQSPATLPLSPGERATLSCRASQSVGFYLAWYQQKPGQPPRLLFYDASKRATGIPARFSASGSGTDFTLTISGLEPEDFAVYYCQHRISWPLTFGQGTKVEVKR |
| 0.793 nM | 0.023 nM | Vatelizumab (antibody, V domains shown) VH: QVQLQESGPGLVKPSETLSLTCTVSGFSLTNYGIHWIRQPPGKGLEWLGVIWARGFTNYNSALMSRLTISKDNSKNQVSLKLSSVTAADTAVYYCARANDGVYYAMDYWGQGTLVTVSS VL: DFVMTQSPAFLSVTPGEKVTITCSAQSSVNYIHWYQQKPDQAPKKLIYDTSKLASGVPSRFSGSGSGTDYTFTISSLEAEDAATYYCQQWTTNPLTFGQGTKVEIK |
| 34.6 nM | 12.1 nM | Humanized antibody FS002-C9 (antibody, human IgG1, kappa, V domains shown, IgG1 heavy chain, kappa light chain) VH: QVQLLESGPGLVKPSQTVSLTCTVSGVSISRGVYSWSWIRQHPGKGLEWIGFIDYNGRTDYNPSLKSRVTISQDTSKNDFSLKLTSVTAADTAIYYCARGLHAFDIWGQGTMVTVSS VL: NIQMTQSPPSLSASVGDRVAITCRASQDISNSLAWYQQKSGQPPKLLLYDVSKLERGVPSRFSGSGSRTDYTLTISSLQPEDFATYYCQQYSSDPTFGQGSKLEFKR |
| 2.07 nM | 0.103 nM | Humanized antibody FS002-C330 (antibody, V domains shown, IgG1 heavy chain, kappa light chain) VH: QLQLQESGPGLVKPSGTLSLTCAVSGGSISSSNWWSWVRQPPGKGLEWIGEIYHSGSTNYNPSLKSRVTISVDKSKNQFSLKLSSVTAADTAVYYCARAHSRYYYGLDYWGQGTLVTVSS VL: not shown |
| 3.63 nM | 0.087 nM | Humanized antibody FS002-C153 (antibody, human IgG1, lambda, V domains shown, IgG1 heavy chain, lambda light chain) VH: QVQLQQWGAELVKPGASVKLSCTASGFNIKDTYMHWVKQRPEQGLEWIGRIDPANGNTKYDPKFQGKATITADTSSNTAYLQLSSLTSEDTAVYYCARSYYRYDGYFDVWGAGTMVTVSS VL: QSALTQPASVSGSPGQSITISCTGTSSDVGGYNYVSWYQQHPGKAPKLMIYDVSNRPSGVSNRFSGSKSGNTASLTISGLQAEDEADYYCSSFTTITTRVFGGGTKLTVLG |
